{"source": "paper PMC12867984", "about": "“Functional assessment of protein variants in structured domains by fluorescence cross-correlation spectroscopy” (Scientific Reports, 2026)", "target": "T1, mCherry-BARD1 (UniProt Q99728 1-777)", "T1 construct": "also called BRCA1 Associated RING Domain 1; source: HeLa, transfected, in live cells and in lysate", "T1 sequence (looked up)": "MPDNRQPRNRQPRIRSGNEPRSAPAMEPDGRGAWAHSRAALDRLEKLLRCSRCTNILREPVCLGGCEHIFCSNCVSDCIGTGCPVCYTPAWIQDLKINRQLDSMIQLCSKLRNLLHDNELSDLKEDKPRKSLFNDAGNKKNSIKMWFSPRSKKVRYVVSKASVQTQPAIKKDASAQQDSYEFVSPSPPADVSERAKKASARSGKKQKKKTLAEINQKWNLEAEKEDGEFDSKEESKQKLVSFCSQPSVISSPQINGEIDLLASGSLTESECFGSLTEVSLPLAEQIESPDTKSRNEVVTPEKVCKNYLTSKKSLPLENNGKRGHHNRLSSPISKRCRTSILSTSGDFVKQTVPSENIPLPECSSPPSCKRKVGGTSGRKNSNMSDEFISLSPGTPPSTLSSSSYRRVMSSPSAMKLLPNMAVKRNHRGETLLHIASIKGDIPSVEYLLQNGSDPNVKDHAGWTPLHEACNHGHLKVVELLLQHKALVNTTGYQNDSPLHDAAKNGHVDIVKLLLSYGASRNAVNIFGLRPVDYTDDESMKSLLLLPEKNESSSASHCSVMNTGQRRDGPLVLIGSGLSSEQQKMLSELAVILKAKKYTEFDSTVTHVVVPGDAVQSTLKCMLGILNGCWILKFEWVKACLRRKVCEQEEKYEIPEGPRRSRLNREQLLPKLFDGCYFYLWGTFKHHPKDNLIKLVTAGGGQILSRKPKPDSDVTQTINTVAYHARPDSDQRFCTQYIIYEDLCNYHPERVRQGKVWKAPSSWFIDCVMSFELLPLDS", "assay": "fluorescence cross-correlation spectroscopy (FCCS); GFP- and mCherry-tagged proteins co-expressed in live HeLa cells; focal volume in the nucleoplasm (MSH2-MSH6 also in the cytoplasm); room temperature; cross-correlation/autocorrelation ratio", "details": "partners not purified"}
{"binder": "GFP-BRCA1-C44F (natural protein, UniProt P38398 1-1863, looked up, also called p.Cys44Phe; source: HeLa, transfected, in live cells) MDLSALRVEEVQNVINAMQKILECPICLELIKEPVSTKCDHIFFKFCMLKLLNQKKGPSQCPLCKNDITKRSLQESTRFSQLVEELLKIICAFQLDTGLEYANSYNFAKKENNSPEHLKDEVSIIQSMGYRNRAKRLLQSEPENPSLQETSLSVQLSNLGTVRTLRTKQRIQPQKTSVYIELGSDSSEDTVNKATYCSVGDQELLQITPQGTRDEISLDSAKKAACEFSETDVTNTEHHQPSNNDLNTTEKRAAERHPEKYQGSSVSNLHVEPCGTNTHASSLQHENSSLLLTKDRMNVEKAEFCNKSKQPGLARSQHNRWAGSKETCNDRRTPSTEKKVDLNADPLCERKEWNKQKLPCSENPRDTEDVPWITLNSSIQKVNEWFSRSDELLGSDDSHDGESESNAKVADVLDVLNEVDEYSGSSEKIDLLASDPHEALICKSERVHSKSVESNIEDKIFGKTYRKKASLPNLSHVTENLIIGAFVTEPQIIQERPLTNKLKRKRRPTSGLHPEDFIKKADLAVQKTPEMINQGTNQTEQNGQVMNITNSGHENKTKGDSIQNEKNPNPIESLEKESAFKTKAEPISSSISNMELELNIHNSKAPKKNRLRRKSSTRHIHALELVVSRNLSPPNCTELQIDSCSSSEEIKKKKYNQMPVRHSRNLQLMEGKEPATGAKKSNKPNEQTSKRHDSDTFPELKLTNAPGSFTKCSNTSELKEFVNPSLPREEKEEKLETVKVSNNAEDPKDLMLSGERVLQTERSVESSSISLVPGTDYGTQESISLLEVSTLGKAKTEPNKCVSQCAAFENPKGLIHGCSKDNRNDTEGFKYPLGHEVNHSRETSIEMEESELDAQYLQNTFKVSKRQSFAPFSNPGNAEEECATFSAHSGSLKKQSPKVTFECEQKEENQGKNESNIKPVQTVNITAGFPVVGQKDKPVDNAKCSIKGGSRFCLSSQFRGNETGLITPNKHGLLQNPYRIPPLFPIKSFVKTKCKKNLLEENFEEHSMSPEREMGNENIPSTVSTISRNNIRENVFKEASSSNINEVGSSTNEVGSSINEIGSSDENIQAELGRNRGPKLNAMLRLGVLQPEVYKQSLPGSNCKHPEIKKQEYEEVVQTVNTDFSPYLISDNLEQPMGSSHASQVCSETPDDLLDDGEIKEDTSFAENDIKESSAVFSKSVQKGELSRSPSPFTHTHLAQGYRRGAKKLESSEENLSSEDEELPCFQHLLFGKVNNIPSQSTRHSTVATECLSKNTEENLLSLKNSLNDCSNQVILAKASQEHHLSEETKCSASLFSSQCSELEDLTANTNTQDPFLIGSSKQMRHQSESQGVGLSDKELVSDDEERGTGLEENNQEEQSMDSNLGEAASGCESETSVSEDCSGLSSQSDILTTQQRDTMQHNLIKLQQEMAELEAVLEQHGSQPSNSYPSIISDSSALEDLRNPEQSTSEKAVLTSQKSSEYPISQNPEGLSADKFEVSADSSTSKNKEPGVERSSPSKCPSLDDRWYMHSCSGSLQNRNYPSQEELIKVVDVEEQQLEESGPHDLTETSYLPRQDLEGTPYLESGISLFSDDPESDPSEDRAPESARVGNIPSSTSALKVPQLKVAESAQSPAAAHTTDTAGYNAMEESVSREKPELTASTERVNKRMSMVVSGLTPEEFMLVYKFARKHHITLTNLITEETTHVVMKTDAEFVCERTLKYFLGIAGGKWVVSYFWVTQSIKERKMLNEHDFEVRGDVVNGRNHQGPKRARESQDRKIFRGLEICCYGPFTNMPTDQLEWMVQLCGASVVKELSSFTLGTGVHPIVVVQPDAWTEDNGFHAIGQMCEAPVVTREWVLDSVALYQCQELDTYLIPQIPHSHY", "values": [{"measurement": "reduction in binding relative to wild type", "result": "~50", "unit": "%"}]}
